Substitutions are numbered along the chain they refer to.
B1: 12.14 (ssRNA)
RNA: GGGAGCUCAGAAUAAACGCUCAAACGUCAUUCCGAGUCGGGUUCGUUCCCCGCUUCGACAUGAGGCCCGGAUCCGGC
modifications: 5'-GMPS
B2: 12.47 (ssRNA)
RNA: GGGAGCUCAGAAUAAACGCUCAAUGUGUGAGUGGAUCCGUUCCCCGCCUGGUGUUCGACAUGAGGCCCGGAUCCGGC
modifications: 5'-GMPS
B3: 12.46 (ssRNA)
RNA: GGGAGCUCAGAAUAAACGCUCAAUGGACACAACUCCAUUCAUCCCGGGACCGCUGUUCGACAUGAGGCCCGGAUCCGGC
modifications: 5'-GMPS
B4: 12.3 (ssRNA)
RNA: GGGAGCUCAGAAUAAACGCUCAACAUCACAACUUGUUGUCCUGGUCGAUGUCCUUCGACAUGAGGCCCGGAUCCGGC
modifications: 5'-GMPS
B5: 12.24 (ssRNA)
RNA: GGGAGCUCAGAAUAAACGCUCAACGUCAGCGGAUCUCCAUUGCGUUAUACGGGUUCGACAUGAGGCCCGGAUCCGGC
modifications: 5'-GMPS
B6: 12.4 (ssRNA)
RNA: GGGAGCUCAGAAUAAACGCUCAACGAAUCAAUGCGCGGAUCUCAGGAUAUUCGUUCGACAUGAGGCCCGGAUCCGGC
modifications: 5'-GMPS
B7: 12.6 (ssRNA)
RNA: GGGAGCUCAGAAUAAACGCUCAAGCGGUAACAUGCUGGAUCUCAGGAAACCGCUUCGACAUGAGGCCCGGAUCCGGC
modifications: 5'-GMPS
B8: 12.45 (ssRNA)
RNA: B7 RNA with C53U
modifications: 5'-GMPS
B9: 12.22 (ssRNA)
RNA: GGGAGCUCAGAAUAAACGCUCAAUGCCACUUUUGUUCGGAUCUUAGGAAGGCAUUCGACAUGAGGCCCGGAUCCGGC
modifications: 5'-GMPS
B10: 12.9 (ssRNA)
RNA: GGGAGCUCAGAAUAAACGCUCAAGUGGAGCUUCGUGACUUGGUCGGAGCCGUGUUCGACAUGAGGCCCGGAUCCGGC
modifications: 5'-GMPS
B11: 10.28 (ssRNA)
RNA: GGGAGCUCAGAAUAAACGCUCAACGUUUAGGACUCCCCCGUUCGUCGAGCGAAUUCGACAUGAGGCCCGGAUCCGGC
modifications: 5'-GMPS
B12: 12.1 (ssRNA)
RNA: GGGAGCUCAGAAUAAACGCUCAAAGCUGUUGGCAGCGCUGGUGAAGGGAUAGGCUUCGACAUGAGGCCCGGAUCCGGC
modifications: 5'-GMPS

biological target: bradykinin, N-bromoacetylated (BrBK) (UniProt P01042 P01042:381-389); assay: kobs covalent reaction, APM gel, 0 C, 5 mM MgCl2; details: protein: synthetic; tags: synthetic peptide, N-terminal bromoacetyl
Experimental: Reverse transcription and polymerase chain reaction were carried out as reported by Schneider et al., (FASEB, 7, 201 (1993)). […] Reactions to determine $kobs$ values were carried out at 0° C. in reaction buffer (50 mM HEPES, pH 7.0, 5 mM MgCl_2, 150 mM NaCl) at 2 µM GMPS-RNA and 130 µM BrBK, with monitoring at 0, 1, 3, 10, 30, and 90 minutes. GMPS-RNA was denatured at 70° C. for 3 minutes and allowed to slow cool at room temperature prior to dilution to final reaction buffer conditions, transfer to ice, and addition of BrBK. Reactions were quenched on ice with 235 mM sodium thiosulfate and run on a denaturing 7 M urea 8% polyacrylamide APM gel. $kobs$ values were determined as the negative slope of the linear range of data points from plots relating the concentration of unreacted GMPS- RNA vs. time. Round 10 and round 12 pools were used for cloning and sequencing.

Sequence of bradykinin, N-bromoacetylated (BrBK) (P01042 whole entry, looked up, one chain of several): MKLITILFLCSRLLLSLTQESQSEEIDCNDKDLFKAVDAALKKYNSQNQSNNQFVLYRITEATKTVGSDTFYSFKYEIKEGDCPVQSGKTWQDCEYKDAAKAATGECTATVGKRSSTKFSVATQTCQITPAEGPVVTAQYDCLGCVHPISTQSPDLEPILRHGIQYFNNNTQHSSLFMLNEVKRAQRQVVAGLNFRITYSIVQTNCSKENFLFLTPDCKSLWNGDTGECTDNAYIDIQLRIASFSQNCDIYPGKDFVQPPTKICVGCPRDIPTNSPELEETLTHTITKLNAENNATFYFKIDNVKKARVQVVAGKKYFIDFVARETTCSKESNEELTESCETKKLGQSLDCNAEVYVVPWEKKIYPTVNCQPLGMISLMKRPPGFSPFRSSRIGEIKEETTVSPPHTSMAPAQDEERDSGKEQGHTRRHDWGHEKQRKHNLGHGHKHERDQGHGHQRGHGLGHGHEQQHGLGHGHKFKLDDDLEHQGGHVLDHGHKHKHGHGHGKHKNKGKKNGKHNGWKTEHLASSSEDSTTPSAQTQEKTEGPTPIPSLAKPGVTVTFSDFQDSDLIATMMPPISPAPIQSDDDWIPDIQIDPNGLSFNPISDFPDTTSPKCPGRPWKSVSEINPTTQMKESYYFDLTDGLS

Binder | activity
B1 | 0.0017 s⁻¹
B2 | 0.00149 s⁻¹
B3 | 0.00067 s⁻¹
B4 | 0.00075 s⁻¹
B5 | 0.00144 s⁻¹
B6 | 0.0017 s⁻¹
B7 | 0.0022 s⁻¹
B8 | 0.0051 s⁻¹
B9 | 0.0012 s⁻¹
B10 | 0.00128 s⁻¹
B11 | 0.0018 s⁻¹

biological target: Rev (HIV-1, UniProt P04618 P04618:1-116); assay: EMSA; covalent complex without UV, resistant to 7M urea PAGE, in presence of human nuclear extract, on ice; details: not given
Experimental: Trunc24 (SEQ ID NO:226) photo-independent crosslinking with HIV-1 Rev in the presence of human nuclear extracts was determined as follows: Trunc24 RNA, nuclear extracts, and Rev protein were combined and incubated on ice for 10 min. Samples were mixed 1:1 with 8M urea loading buffer and placed on a 7M urea, 8% polyacrylamide gel for analysis.

Sequence of Rev (P04618 whole entry, one chain of several): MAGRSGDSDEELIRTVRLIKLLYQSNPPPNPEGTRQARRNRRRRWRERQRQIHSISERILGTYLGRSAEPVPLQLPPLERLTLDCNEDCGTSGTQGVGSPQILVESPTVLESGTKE

Binder | binding result
GGGGAUUAACAGGCACACCUGUUAACCCU (ssRNA, 5-iodouracil at all U) [Trunc24] | binds

biological target: bradykinin (BK) (UniProt P01042 P01042:381-389); assay: competition; inhibition of reaction of 12.1 with BrBK; +/-60; details: tags: native peptide
Sequence (P01042 whole entry, looked up, one chain of several): as the sequence (P01042 whole entry, looked up, one chain of several) above

Binder | Ki
B12 | 140 µM

biological target: des-Arg9-bradykinin (UniProt P01042 P01042:381-388, des-Arg9); assay: competition; inhibition of reaction of 12.1 with BrBK; +/-0.5; details: tags: peptide analog
Sequence (P01042 whole entry, looked up, change not shown, one chain of several): as the sequence (P01042 whole entry, looked up, one chain of several) above

Binder | Ki
B12 | 2600 µM
